Legend:
[1] = target: Full-length TBEV C protein (residues 1-96), Kuutsalo-14 strain (tick-borne encephalitis virus (TBEV-Eu), strain Kuutsalo-14); assay: SEC
[2] = target: Truncated TBEV C protein C_(18-93), containing residues 18-93, Kuutsalo-14 strain (tick-borne encephalitis virus (TBEV-Eu), strain Kuutsalo-14); assay: SEC

Row | Substance | stoichiometry N [1] | stoichiometry N [2]
1 | Full-length TBEV C protein (residues 1-96), Kuutsalo-14 strain (natural protein) | 2 | 
2 | Truncated TBEV C protein C_(18-93), containing residues 18-93, Kuutsalo-14 strain (domain or fragment) |  | 2
